# Numbered stars: 1 amine (or outer) side, 2 acyl side, 3 side chain; on linkers, the order of the positions; unused ones are H or OH. Bridge positions count the residues as written; N and C are the ends. Square brackets hold non-standard residues; d marks the D form. Ends that are not written are not given here. 1Nal = N[C@@H](Cc1cccc2ccccc12)C(=O)O; TBMB = c1c(C[*:1])cc(C[*:3])cc1C[*:2]; 3Pal = N[C@@H](Cc1cccnc1)C(=O)O; 4Pal = N[C@@H](Cc1ccncc1)C(=O)O; Cha = N[C@@H](CC1CCCCC1)C(=O)O
# B1: Ac-(06-34-18) Phe2 1Nal4 (peptide)
# peptide: Ac-CSFP[1Nal]RCLHQDLC-NH2
# modifications: linker 1-7-13 via TBMB
# SMILES: CC(=O)N[C@H]1CSCc2cc3cc(c2)CSC[C@H](NC(=O)[C@H](CCCNC(=N)N)NC(=O)[C@H](Cc2cccc4ccccc24)NC(=O)[C@@H]2CCCN2C(=O)[C@H](Cc2ccccc2)NC(=O)[C@H](CO)NC1=O)C(=O)N[C@@H](CC(C)C)C(=O)N[C@@H](Cc1c[nH]cn1)C(=O)N[C@@H](CCC(N)=O)C(=O)N[C@@H](CC(=O)O)C(=O)N[C@@H](CC(C)C)C(=O)N[C@H](C(N)=O)CSC3
# B2: Ac-(06-34-18) Phe2 Cha4 (peptide)
# peptide: Ac-CSFP[Cha]RCLHQDLC-NH2
# modifications: linker 1-7-13 via TBMB
# SMILES: CC(=O)N[C@H]1CSCc2cc3cc(c2)CSC[C@H](NC(=O)[C@H](CCCNC(=N)N)NC(=O)[C@H](CC2CCCCC2)NC(=O)[C@@H]2CCCN2C(=O)[C@H](Cc2ccccc2)NC(=O)[C@H](CO)NC1=O)C(=O)N[C@@H](CC(C)C)C(=O)N[C@@H](Cc1c[nH]cn1)C(=O)N[C@@H](CCC(N)=O)C(=O)N[C@@H](CC(=O)O)C(=O)N[C@@H](CC(C)C)C(=O)N[C@H](C(N)=O)CSC3
# B3: Ac-(06-34-18) Phe2 4Pal4 (peptide)
# peptide: Ac-CSFP[4Pal]RCLHQDLC-NH2
# modifications: linker 1-7-13 via TBMB
# SMILES: CC(=O)N[C@H]1CSCc2cc3cc(c2)CSC[C@H](NC(=O)[C@H](CCCNC(=N)N)NC(=O)[C@H](Cc2ccncc2)NC(=O)[C@@H]2CCCN2C(=O)[C@H](Cc2ccccc2)NC(=O)[C@H](CO)NC1=O)C(=O)N[C@@H](CC(C)C)C(=O)N[C@@H](Cc1c[nH]cn1)C(=O)N[C@@H](CCC(N)=O)C(=O)N[C@@H](CC(=O)O)C(=O)N[C@@H](CC(C)C)C(=O)N[C@H](C(N)=O)CSC3
# Biological target: T1, biotinylated human plasma Kallikrein (human, UniProt P03952 20-638, biotinylated)
# T1 construct: also called Biotinylated hPK
# Test: phage binding assay, signal:background
# Method: (§1) Library transformant colonies, or selection output colonies, were picked and grown as individual cultures in 2TY broth containing selective antibiotic. The picked colonies were DNA-sequenced using a QIAgen PyroMark Q96 DNA sequencer to reveal the amino-acid substitution present in each clone, and were assayed for human plasma Kallikrein binding as follows. The phage-containing supernatant was harvested from the culture and phage were cyclised with tris bromomethyl benzene(TBMB) based on the methods of Heinis et al (Nature Chemical Biology vol. 5 pp 502-507 (2009)). The purified phage from this process were assayed for binding to biotinylated human plasma Kallikrein using a homogeneous plate-based binding assay; assay read-out measured on a BMG Labtech Pherastar FS plate reader. The quantitative binding data from duplicate assay samples was averaged (mean) and expressed as signal:background. […] The assay data was correlated with the peptide sequences.
# Selections against human plasma Kallikrein were performed with this library in order to study the non-WPAR (SEQ ID NO: 18) determinants of Kallikrein binding, and to isolate the optimal WPAR (SEQ ID NO: 18)-containing peptide sequence.
# T1 sequence (P03952 20-638 limits assumed): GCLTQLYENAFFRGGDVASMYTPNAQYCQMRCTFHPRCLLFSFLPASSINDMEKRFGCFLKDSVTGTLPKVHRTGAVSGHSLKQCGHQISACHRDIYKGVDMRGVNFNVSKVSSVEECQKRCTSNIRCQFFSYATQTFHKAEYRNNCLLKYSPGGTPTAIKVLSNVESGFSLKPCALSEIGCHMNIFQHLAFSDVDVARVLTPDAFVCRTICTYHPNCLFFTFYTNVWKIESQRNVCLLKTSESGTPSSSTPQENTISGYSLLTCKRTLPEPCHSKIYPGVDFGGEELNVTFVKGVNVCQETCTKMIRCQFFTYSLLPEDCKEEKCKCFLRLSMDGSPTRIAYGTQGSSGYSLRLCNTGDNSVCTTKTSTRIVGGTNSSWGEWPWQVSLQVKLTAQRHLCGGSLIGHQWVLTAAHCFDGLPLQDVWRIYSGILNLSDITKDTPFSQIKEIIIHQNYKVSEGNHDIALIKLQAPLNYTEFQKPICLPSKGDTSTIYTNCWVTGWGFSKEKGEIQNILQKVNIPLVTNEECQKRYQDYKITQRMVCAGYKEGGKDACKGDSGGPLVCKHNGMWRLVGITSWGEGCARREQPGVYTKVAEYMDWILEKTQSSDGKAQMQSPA
row,Binder,Binding assay signal
1,CSWPARCTHQDLC (linker 1-7-13 via TBMB) [SEQ ID NO 73],110

# Biological target: T1, biotinylated human plasma Kallikrein
# Test: phage binding assay
# Method: as §1
# A library was constructed where positions 1, 6, 7, 8, 9 &10 of 06-34-03 were fixed and positions 2, 3, 4 & 5 were randomised (see 'Randomisation of peptide domains—Library construction' in Methods above). Selections against human plasma Kallikrein were performed at a variety of stringencies (see 'Phage selections' in Methods above). All output sequences were identified and analysed for target binding (see 'Randomisation of peptide domains—Assay of binding of individual clones' in Methods above). Table 17 lists each unique sequence, its relative abundance in the selection output (frequency), and a rank number according to target binding strength.
row,Binder,Rank (by Kallikrein binding)
1,CSLFDHCTHQDLC (linker 1-7-13 via TBMB) [SEQ ID NO 112],40
2,CSWPARCTHQDLC (linker 1-7-13 via TBMB) [SEQ ID NO 73],1
3,CSFPYRCTHQDLC (linker 1-7-13 via TBMB) [SEQ ID NO 77],5
4,CSYPIRCTHQDLC (linker 1-7-13 via TBMB) [SEQ ID NO 90],18
5,CSWLARCTHQDLC (linker 1-7-13 via TBMB) [SEQ ID NO 76],4
6,CSFPYKCTHQDLC (linker 1-7-13 via TBMB) [SEQ ID NO 94],22
7,CSHPYRCTHQDLC (linker 1-7-13 via TBMB) [SEQ ID NO 80],8
8,CSHPFRCTHQDLC (linker 1-7-13 via TBMB) [SEQ ID NO 81],9
9,CSWWARCTHQDLC (linker 1-7-13 via TBMB) [SEQ ID NO 99],27
10,CSFPIRCTHQDLC (linker 1-7-13 via TBMB) [SEQ ID NO 87],15
11,CSWPYRCTHQDLC (linker 1-7-13 via TBMB) [SEQ ID NO 82],10
12,CSWHARCTHQDLC (linker 1-7-13 via TBMB) [SEQ ID NO 96],24
13,CSFPFKCTHQDLC (linker 1-7-13 via TBMB) [SEQ ID NO 78],6
14,CSYPYRCTHQDLC (linker 1-7-13 via TBMB) [SEQ ID NO 98],26
15,CSYPFRCTHQDLC (linker 1-7-13 via TBMB) [SEQ ID NO 93],21
16,CSWQARCTHQDLC (linker 1-7-13 via TBMB) [SEQ ID NO 114],42
17,CSWSARCTHQDLC (linker 1-7-13 via TBMB) [SEQ ID NO 91],19
18,CSWAARCTHQDLC (linker 1-7-13 via TBMB) [SEQ ID NO 79],7
19,CSFPWRCTHQDLC (linker 1-7-13 via TBMB) [SEQ ID NO 95],23
20,CSWPSRCTHQDLC (linker 1-7-13 via TBMB) [SEQ ID NO 74],2
21,CSWPFRCTHQDLC (linker 1-7-13 via TBMB) [SEQ ID NO 86],14
22,CRFPFKCTHQDLC (linker 1-7-13 via TBMB) [SEQ ID NO 83],11
23,CSHRRWCTHQDLC (linker 1-7-13 via TBMB) [SEQ ID NO 113],41

# Biological target: T2, human plasma Kallikrein (human, UniProt P03952 20-638, limits assumed)
# T2 construct: also called hPK; human PK
# Test: enzyme inhibition assay
# T2 sequence (P03952 20-638 limits assumed): as above
row,Binder,Ki
1,"ACSWPARCNHQDLCA (linker 2-8-14 via TBMB; not fully specified (N-terminus, C-terminus), also called PK105) [06-57]",0.4 nM
2,"ACSWPYRCLHQDYCA (linker 2-8-14 via TBMB; not fully specified (N-terminus, C-terminus), also called PK109) [06-61]",5.8 nM
3,"ACGVPYRCTHQEMCA (linker 2-8-14 via TBMB; not fully specified (N-terminus, C-terminus), also called PK111) [06-64 T]",6.9 nM
4,"ACTWPARCTHQNWCA (linker 2-8-14 via TBMB; not fully specified (N-terminus, C-terminus), also called PK107) [06-09]",1.2 nM
5,"ACTWPARCTMQNWCA (linker 2-8-14 via TBMB, also called PK108) [06-A2*]",181 nM
6,"ACADPWACLFRRPCA (linker 2-8-14 via TBMB; not fully specified (N-terminus, C-terminus), also called PK113) [06-63 T]",1280 nM
7,"ACNWPYRCLHTDLCA (linker 2-8-14 via TBMB; not fully specified (N-terminus, C-terminus), also called PK110) [06-157]",3.3 nM
8,"ACGGYNNCRAFSYCA (linker 2-8-14 via TBMB, also called PK115) [1F7]",2.2 nM
9,"ACRWPARCLTTSLCA (linker 2-8-14 via TBMB; not fully specified (N-terminus, C-terminus), also called PK102) [06-59]",0.5 nM
10,"ACAWPAKCLTRELCA (linker 2-8-14 via TBMB, also called PK103) [1B1]",8.1 nM

# Biological target: T2, human plasma Kallikrein
# Test: enzyme inhibition assay
# Remark: another data set of the same source
row,Binder,Ki
1,B1,13.5 nM
2,Ac-CS[3Pal]PYRCLHQDLC-NH2 (linker 1-7-13 via TBMB) [Ac-(06-34-18) 3Pal2 Tyr4],0.91 nM
3,Ac-CS[4Pal]PYRCLHQDLC-NH2 (linker 1-7-13 via TBMB) [Ac-(06-34-18) 4Pal2 Tyr4],3.56 nM
4,Ac-CS[Cha]PYRCLHQDLC-NH2 (linker 1-7-13 via TBMB) [Ac-(06-34-18) Cha2 Tyr4],1.87 nM
5,Ac-CSFP[3Pal]RCLHQDLC-NH2 (linker 1-7-13 via TBMB) [Ac-(06-34-18) Phe2 3Pal4],2.57 nM
6,B2,0.91 nM
7,B3,2.2 nM
